1 molecule from article doi:10.1101/2021.04.13.439745 can be followed below.

The experiment concerns the target T1, Pil1-mCherry-Atg38(161-190) (S. pombe), O94427.
T1 chain: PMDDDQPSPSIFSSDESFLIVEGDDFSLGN
The settings on record: remark: other sources report otherwise.

B1: GFP-Atg8^(P52A R67A), O94272 1-116 (natural protein)
chain: MRSQFKDDFSFEKRKTESQRIREKYPDRIPVICEKVDKSDIAAIDKKKYLVASDLTVGQFVYVIRKAIKLSPEKAIFIFIDEILPPTAALMSTIYEEHKSEDGFLYITYSGENTFG
Consider B1, for which the PCC (Pearson correlation coefficient of colocalisation) came out at 0.42.
